Molecular target: human lactate dehydrogenase C (LDHC), recombinant wild type with C-terminal His6-tag (human) (UniProt P07864)

Sequence of human lactate dehydrogenase C (LDHC), recombinant wild type with C-terminal His6-tag (P07864 whole entry): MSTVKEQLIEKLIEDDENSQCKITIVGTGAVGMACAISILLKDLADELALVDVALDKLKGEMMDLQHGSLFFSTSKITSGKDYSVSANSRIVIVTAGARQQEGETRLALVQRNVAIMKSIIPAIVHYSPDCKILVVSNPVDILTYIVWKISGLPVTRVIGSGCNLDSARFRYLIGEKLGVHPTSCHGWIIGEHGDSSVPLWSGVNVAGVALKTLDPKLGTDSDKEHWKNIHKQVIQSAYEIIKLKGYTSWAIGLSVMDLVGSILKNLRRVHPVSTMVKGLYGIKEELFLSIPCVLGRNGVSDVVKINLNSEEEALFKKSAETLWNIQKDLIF

Work on “human lactate dehydrogenase C (LDHC), recombinant wild type with C-terminal His6-tag (from UniProt P07864 1-332) (enzyme)” yielded a stoichiometry N of 4.
